Laboratory results: article PMC9063327

Key:
purified protein [1] = substrate: CC(C)C(=O)C(=O)O; assay: purified protein; format: biochemical, Lactococcus lactis; conditions: 50 mM potassium phosphate, 1 mM MgSO4, 0.5 mM thiamine pyrophosphate, 0.2 mM NADH; brackets are 95% CI
purified protein [2] = substrate: CC(=O)C(=O)O; assay: purified protein; format: biochemical, Lactococcus lactis; conditions: 50 mM potassium phosphate, 1 mM MgSO4, 0.5 mM thiamine pyrophosphate, 0.2 mM NADH; brackets are 95% CI

B1: KivD (Lactococcus lactis subsp. lactis) (protein)
chain: MYTVGDYLLDRLHELGIEEIFGVPGDYNLQFLDQIISHKDMKWVGNANELNASYMADGYARTKKAAAFLTTFGVGELSAVNGLAGSYAENLPVVEIVGSPTSKVQNEGKFVHHTLADGDFKHFMKMHEPVTAARTLLTAENATVEIDRVLSALLKERKPVYINLPVDVAAAKAEKPSLPLKKENSTSNTSDQEILNKIQESLKNAKKPIVITGHEIISFGLEKTVTQFISKTKLPITTLNFGKSSVDEALPSFLGIYNGTLSEPNLKEFVESADFILMLGVKLTDSSTGAFTHHLNENKMISLNIDEGKIFNERIQNFDFESLISSLLDLSEIEYKGKYIDKKQEDFVPSNALLSQDRLWQAVENLTQSNETIVAEQGTSFFGASSIFLKSKSHFIGQPLWGSIGYTFPAALGSQIADKESRHLLFIGDGSLQLTVQELGLAIREKINPICFIINNDGYTVEREIHGPNQSYNDIPMWNYSKLPESFGATEDRVVSKIVRTENEFVSVMKEAQADPNRMYWIELILAKEGAPKVLKKMGKLFAEQNKS
notes: full length, pET28a, N-terminal His tag (kept), expressed in E. coli BL21(DE3), Ni-NTA purified; gene from pGEM-kivD
With B1 the Km (purified protein [1]) was 4.18 (4.08, 4.23) mM, the Vmax (purified protein [1]) was 0.0409 (0.038, 0.044) and the kcat (purified protein [1]) was 3.46 s⁻¹. The kcat/Km (purified protein [1]) was 828 M⁻¹ s⁻¹, the Km (purified protein [2]) was 18.81 (17.15, 20.85) mM and the Vmax (purified protein [2]) was 0.0034 (0.0029, 0.0039). For the same protein, the kcat (purified protein [2]) was 0.28 s⁻¹ and the kcat/Km (purified protein [2]) was 15.1 M⁻¹ s⁻¹.
